Source: US20200397913A1, “AXL-SPECIFIC ANTIBODY-DRUG CONJUGATES FOR CANCER TREATMENT” (GENMAB A/S, priority 2015, published 2020)
Marks after values point to notes of the source that are not given here.

Assays:
A431 cells = test: Antibody-dependent cell-mediated cytotoxicity (51Cr release); format: cell-based, human; settings: concentrations up to 10 μg/mL
Method: The ability of anti-AXL antibodies to induce ADCC of A431 epidermoid carcinoma cells was determined as explained below. As effector cells, peripheral blood mononuclear cells from healthy volunteers (UMC Utrecht, The Netherlands) were used.
A431 cells were collected (5×10^6 cells) in culture medium (RPMI 1640 culture medium supplemented with 10% fetal calf serum (FSC)), to which 100 μCi ^51Cr (Chromium-51; Amersham Biosciences Europe GmbH, Roosendaal, The Netherlands) had been added, and the mixture was incubated in a 37° C. water bath for 1 hour (hr) while shaking. After washing of the cells (twice in PBS, 1200 rpm, 5 min), the cells were resuspended in RPMI1640/10% FSC and counted by trypan blue exclusion. Cells were diluted to a density of 1×10^5 cells/mL.
Peripheral blood mononuclear cells (healthy volunteers, UMC Utrecht, Utrecht, The Netherlands) were isolated from 45 mL of freshly drawn heparin blood by Ficoll (Bio Whittaker; lymphocyte separation medium, cat 17-829E) according to the manufacturer's instructions. After resuspension of cells in RPMI1640/10% FSC, cells were counted by trypan blue exclusion and diluted to a density of 1×10^7 cells/mL.
50 μl of ^51Cr-labeled targets cells were pipetted into 96-well plates, and 50 μl of antibody were added, diluted in RPMI1640/10% FSC (3-fold dilutions at final concentrations range 0.01-10 μg/mL). Cells were incubated (room temperature (RT), 15 min), and 50 μl effector cells were added, resulting in an effector to target ratio of 100:1 (for determination of maximal lysis, 100 μl 5% Triton-X100 was added instead of effector cells; for determination of spontaneous lysis, 50 μL target cells and 100 μL RPMI1640/10% FSC were used). Cells were incubated overnight at 37° C. and 5% CO2. After spinning down cells (1200 rpm, 10 min), 70 μL of supernatant was harvested into micronic tubes, and counted in a gamma counter. The percentage specific lysis was calculated as follows:
% specific lysis=(cpm sample−cpm target cells only)/(cpm maximal lysis−cpm target cells only),
wherein cpm is counts per minute.

[1] = test system: MDA-MB-231 and Calu-1 cells; test: Internalization of cell surface bound HuMab-AXL by flow cytometry; format: cell-based, human; settings: 1 hour 4° C, then overnight 37° C versus 4° C
Method: Internalization of cell surface bound HuMab-AXL antibodies to MDA-MB-231 and Calu-1 cells (human lung carcinoma cell line; ATCC, catalognumber HTB-54) was evaluated by flow cytometry. 50,000 cells were seeded in 96-well tissue culture plates and allowed to attach for 6 hrs at 37° C. Plates were incubated at 4° C. for 30 minutes before incubation with serial dilutions of AXL-antibodies (final concentration range 0.0032-10 μg/mL) at 4° C. for 1 hour. Subsequently, the medium was replaced by tissue culture medium without antibody and cells were incubated overnight (16-18 hours) at 37° C. or 4° C. […] Finally, cells were washed twice in PBS/0.1% BSA/0.02% azide, resuspended in 120 μL PBS/0.1% BSA/0.02% azide and analyzed on a FACS Cantoll (BD Biosciences).
(§1) Binding curves were analyzed using non-linear regression (sigmoidal dose-response with variable slope) using GraphPad Prism V5.04 software (GraphPad Software, San Diego, Calif., USA).

CV1664 tumors = test: Cervical cancer PDX model CV1664; format: in vivo, BALB/c nude mice; settings: 4 mg/kg at day 0 and 7
Method: Inoculation of tumor fragments into BALB/c nude mice and randomization was performed as described in Example 21.

SKMEL147 tumors = test: SKMEL147 melanoma xenograft model; format: in vivo, NMRI nude mice; settings: 4 mg/kg i.v. on day 12 and day 19 after tumor cell injection
[2] = target: T1, human AXL with a cynomolgus monkey extracellular domain (ECD) (Homo sapiens, UniProt P30530, P441T/S191N/S285L/T105A/T112A/T125N/T443A); test: Flow cytometry binding to HEK293T cells transfected with human AXL with cynomolgus ECD; settings: at least 3 experiments
T1 construct: aa 1-447); expressed in transfected cells; host or cells: HEK293T

human AXL = target: T2, human AXL (Homo sapiens, UniProt P30530); test: Flow cytometry binding to HEK293T cells transfected with full length human AXL; settings: at least 3 experiments
T2 construct: expression constructs for full length human AXL; expressed in transfected cells; host or cells: HEK293T

[3] = target: T3, AXLECDHis (extracellular domain of human AXL) (Homo sapiens, UniProt P30530); test: Binding affinity by Bio-Layer Interferometry (Octet); settings: soluble AXLECDHis, 30° C, 1:1 model
T3 construct: the extracellular domain (ECD) of human AXL (aa 1-447) with a C-terminal His tag (AXLECDHis); His tag (C); made in house; host or cells: HEK-293F

[4] = target: T4, human AXL with a mouse ECD (Mus musculus, UniProt Q00993, A791T/A867T/C878S/D603E/D853E/E609A/F637Y/G606S/G869S/H824Y/L452V/L825P/L872Q/P881A/R785Q/R828P/S823G/S856P/S873P/T871A/V766A); test: Flow cytometry binding to HEK293T cells transfected with human AXL with mouse ECD; settings: 0.0024-10 μg/mL
T4 construct: aa 1-441); expressed in transfected cells; host or cells: HEK293T
T4 sequence (Q00993 19-888 with the stated changes): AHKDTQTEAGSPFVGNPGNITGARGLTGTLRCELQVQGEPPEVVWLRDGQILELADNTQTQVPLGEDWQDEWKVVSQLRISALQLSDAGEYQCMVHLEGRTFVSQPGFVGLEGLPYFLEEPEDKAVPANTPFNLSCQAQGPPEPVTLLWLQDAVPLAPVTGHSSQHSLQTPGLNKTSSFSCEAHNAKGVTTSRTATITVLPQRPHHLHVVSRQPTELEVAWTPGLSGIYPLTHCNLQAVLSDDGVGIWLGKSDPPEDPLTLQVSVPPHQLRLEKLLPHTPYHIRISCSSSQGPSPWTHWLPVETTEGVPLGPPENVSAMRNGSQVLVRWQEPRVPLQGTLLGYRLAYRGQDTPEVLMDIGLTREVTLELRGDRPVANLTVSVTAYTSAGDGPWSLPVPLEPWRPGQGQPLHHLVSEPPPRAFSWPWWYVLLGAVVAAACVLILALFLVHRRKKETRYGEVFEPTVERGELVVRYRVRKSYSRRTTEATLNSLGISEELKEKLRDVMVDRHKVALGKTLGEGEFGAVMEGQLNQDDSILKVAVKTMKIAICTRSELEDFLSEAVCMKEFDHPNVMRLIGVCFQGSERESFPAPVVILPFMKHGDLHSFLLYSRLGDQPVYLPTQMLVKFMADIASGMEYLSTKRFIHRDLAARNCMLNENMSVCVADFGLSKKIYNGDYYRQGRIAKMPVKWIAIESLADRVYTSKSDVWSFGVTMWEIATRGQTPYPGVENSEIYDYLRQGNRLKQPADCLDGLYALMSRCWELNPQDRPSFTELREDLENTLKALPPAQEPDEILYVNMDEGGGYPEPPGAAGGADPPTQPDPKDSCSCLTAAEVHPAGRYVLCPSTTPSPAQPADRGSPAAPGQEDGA

PAXF1657 tumors = test: PAXF1657 pancreas cancer PDX model; format: in vivo, NMRI nu/nu mice; settings: dose not stated in the sentence (FIG. 10B, 10C)
Method: Human pancreas tumor tissue was subcutaneously implanted in the left flank of 5-7 weeks old female NMRI nu/nu mice. […] At day of randomization (day 0), the 3 ADCs were dosed intravenously (i.v.) at either 4 mg/kg or 2 mg/kg, and the control group received a single dose of IgG1-b12 (4 mg/kg). Tumor volumes (mm^3) were monitored twice weekly and were calculated from caliper (PLEXX) measurements as: 0.52×(length)×(width)^2.

[5] = target: Gas6 binding to AXL on A431 cells (Homo sapiens, UniProt P30530); test: Gas6 binding to A431 cells pre-incubated with AXL antibodies; set-up: endogenous in cells; host or cells: A431; settings: pre-incubation with 10 μg/mL antibody; control antibody b12
Method: Alternatively, A431 cells were pre-incubated with 10 μg/mL AXL antibodies (15 minutes, 4° C.) to assess if the AXL ligand Gas6 could still bind in presence of AXL antibodies. […] After washing three times in PBS/0.1% BSA/0.02% azide, cells were incubated with mouse anti-Gas6 IgG2a (R&D Systems; cat no. MAB885) at 4° C. for 30 min. After washing three times in PBS/0.1% BSA/0.02% azide, cells were incubated with FITC-labelled goat anti-mouse IgG (Dako, Heverlee, Belgium; cat no. F049702) at 4° C. for 30 min in the dark. Next, cells were washed twice in PBS/0.1% BSA/0.02% azide, resuspended in 120 μL PBS/0.1% BSA/0.02% azide and analyzed on a FACS Cantoll (BD Biosciences).
as §1
Therefore, binding of Gas6 to A431 cells that had been pre-incubated with 10 μg/mL AXL antibodies was tested as described in Example 2.

AXL on A431 cells = target: T5, AXL on A431 cells (Homo sapiens, UniProt P30530); test: Antibody binding to A431 cells with or without Gas6 pre-incubation; settings: for Antibody binding to A431 cells: EC50 w/o Gas6 mean (s.d.): no Gas6 pre-incubation; for Antibody binding to A431 cells: EC50 in presence of Gas6 mean (s.d.): pre-incubation with 10 μg/mL Gas6
T5 construct: AXL-positive A431 cells were incubated; endogenous in cells; host or cells: A431

[6] = target: T6, human AXL transiently expressed by HEK-293F cells (Homo sapiens, UniProt P30530); test: Homogeneous antigen specific screening assay (FMAT); settings: binding to human AXL on HEK-293F cells
T6 construct: HEK-293F cells transiently expressing full length human AXL; expressed in transfected cells; host or cells: HEK-293F

| Molecule | induction of ADCC (A431 cells) | internalization of membrane-bound antibody [1] | anti-tumor activity (CV1664 tumors) | anti-tumor activity (SKMEL147 tumors) | Binding EC50 cynomolgus AXL Average (s.d.) [2] | Binding EC50 human AXL Average (s.d.) (human AXL) | Kdis [3] | Kon [3] | binding to AXL with a mouse ECD [4] | anti-tumor activity (PAXF1657 tumors) | Gas6 binding: Maximal binding in presence of AXL antibodies (% of binding in presence of control antibody) [5] | Antibody binding to A431 cells: EC50 w/o Gas6 mean (s.d.) (AXL on A431 cells) | Antibody binding to A431 cells: EC50 in presence of Gas6 mean (s.d.) (AXL on A431 cells) | Maximal binding [6] |
| --- | --- | --- | --- | --- | --- | --- | --- | --- | --- | --- | --- | --- | --- | --- |
| IgG1-AXL-107: human IgG1,κ anti-AXL antibody, VH SEQ ID NO:1, VL SEQ ID NO:2; Ig1 domain binding | did not induce significant ADCC | internalize | only induced minor inhibition of tumor growth | did not show tumor growth inhibition | – | – | – | – | – | – | – | – | – | – |
| IgG1-AXL-726-M101L: point mutant of IgG1-AXL-726, VH SEQ ID NO:32, VL SEQ ID NO:33 (antibody, V domains shown, homo sapiens) VH: QVQLQQWGAGLLKPSETLSLTCAIDGGSFSGYYWSWIRQPPGKGLEWIGEISHSGRTNYNPSLKSRVTISIDTSKNQFSLKLSSVAAADTAVYYCARFITLIRGAIITHFDYWGQGALVTVSS VL: DIQMTQSPSSLSASVGDRVTITCRASQGISSWLAWYQQKPEKAPKSLIYAASSLQSGVPSRFSGSGSGTDFTLTISSLQPEDFATYYCQQYHSYPYTFGQGTKLEIK | did not induce significant ADCC | internalize | – | – | 0.250 (0.066) μg/mL | 0.184 (0.117) μg/mL | 6.9e-05 s⁻¹ | 210000 M⁻¹ s⁻¹ | not detectable | – | – | – | – | – |
| IgG1-AXL-148: human IgG1,κ anti-AXL antibody, VH SEQ ID NO:5, VL SEQ ID NO:6; Ig2 domain binding (antibody, V domains shown, homo sapiens) VH: EVQLLESGGGLVQPGGSLRLSCAASGFTFSSYAMTWVRQAPGKGLEWVSAISISGGSTFYADSVKGRFTISRDNSKNTLYLQMNSLRAEDTAVYYCRGYSGYVYDAFDFWGQGTMVTVSS VL: DIQMTQSPSSLSASVGDRVTITCRASQGISNWLAWYQQKPEKAPKSLIYAASSLQSGVPSRFSGSGSGTDFTLTISSLQPEDFATYYCQQYNSYPLTFGGGTKVEIK | did not induce significant ADCC | internalize | – | – | 0.152 (0.080) μg/mL | 0.094 (0.059) μg/mL | 0.0044 s⁻¹ | 230000 M⁻¹ s⁻¹ | not detectable | did not result in anti-tumor activity | 106% | 0.11 (0.13) μg/mL | 0.20 (0.30) μg/mL | 3499 Arbitrary units |
| IgG1-AXL-140: human IgG1,κ anti-AXL antibody, VH SEQ ID NO:3, VL SEQ ID NO:4 (antibody, V domains shown, homo sapiens) VH: EVQLLESGGGLVQPGGSLRLSCAASGFTFSSYAMTWVRQAPGKGLEWVSAISISGASTFYADSVKGRFTISRDNSKNTLSLQMNSLRAEDTAVYFCRGYSGYVYDAFDIWGQGTMVTVSS VL: DIQMTQSPSSLSASVGDRVTITCRASQGISNWLAWYQQKPEKAPKSLIYAASSLQSGVPSRFSGSGSGTDFTLTISSLQPEDFATYYCQQYNSYPLTFGGGTKVEIK | – | – | – | – | – | – | – | – | – | – | – | – | – | 2889 Arbitrary units |
| IgG1-AXL-726: human IgG1,κ anti-AXL antibody, VH SEQ ID NO:31, VL SEQ ID NO:33; FN2 domain binding (antibody, V domains shown, homo sapiens) VH: QVQLQQWGAGLLKPSETLSLTCAIDGGSFSGYYWSWIRQPPGKGLEWIGEISHSGRTNYNPSLKSRVTISIDTSKNQFSLKLSSVAAADTAVYYCARFITMIRGAIITHFDYWGQGALVTVSS VL: DIQMTQSPSSLSASVGDRVTITCRASQGISSWLAWYQQKPEKAPKSLIYAASSLQSGVPSRFSGSGSGTDFTLTISSLQPEDFATYYCQQYHSYPYTFGQGTKLEIK | – | – | – | – | 0.349 (0.160) μg/mL | 0.288 (0.206) μg/mL | 0.00013 s⁻¹ | 240000 M⁻¹ s⁻¹ | not detectable | – | 98% | 0.32 (0.35) μg/mL | 0.55 (0.69) μg/mL | 3154 Arbitrary units |
| IgG1-AXL-187: human IgG1,κ anti-AXL antibody, VH SEQ ID NO:19, VL SEQ ID NO:20 (antibody, V domains shown, homo sapiens) VH: QVPLQQWGAGLLKPSETLSLTCAVYGGSFSGYHWSWIRQPPGKGLEWIGEISHSGRTNYNPSLKSRVTISIDTSKNQFSLKLSSVTAADTAVYYCASFITMIRGTIITHFDYWGQGTLVTVSS VL: DIQMTQSPSSLSASVGDRVTITCRASQGISSWLAWYQQKPEKAPKSLIYAASSLQSGVPSRFSGSGSGTDFTLTISSLQPEDFATYYCQQYHSYPYTFGQGTKLEIK | – | – | – | – | – | – | – | – | – | – | – | – | – | 2563 Arbitrary units |
